Values quoted from earlier work as cited in paper PMC4150018.

Molecular target: thrombin (Bos taurus) (UniProt P00735)
Chain of UniProt P00735 (P00735 318-366): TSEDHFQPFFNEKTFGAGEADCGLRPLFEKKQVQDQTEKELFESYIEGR

For “rhodniin (Kazal-type thrombin inhibitor) (from UniProt Q06684)”, the Ki is listed as 0.2 pM.
